The values below come from PMC3753642.

Test in all cases: EMSA
What all share (details): TNK buffer (composition and pH not in material), 30 C

Data set [1] concerns the target Hfq WT (Escherichia coli) (UniProt P0A6X3).
Data set [2] concerns the target Hfq:R16A R16A (Escherichia coli) (UniProt P0A6X3).
Data set [3] concerns the target Hfq TM R16A;R17A;R19D (Escherichia coli) (UniProt P0A6X3).

Turning to ArcZ56 sRNA, the values for the Kd in data set [1] and in data set [2] were 49 nM and 190 nM, respectively.

Turning to DsrA sRNA, the Kd was found to be 300 nM in data set [3], 132 nM in data set [1] and 373 nM in data set [2].

Regarding RprA sRNA, the Kd in data set [1] came out at 187 nM; in data set [2], 623 nM.

Take rpoS323 mRNA leader: the Kd amounted to 144 nM in data set [1] and 196 nM in data set [2].
